Measured values published in publication PMC8752127 (Structure(London, England:1993), 2022).

Target: CEP164^1−109 (N-terminal domain of human CEP164), untagged (human, UniProt Q9UPV0)
Experiment: crystal structure; nanobody and CEP164 1-109 (or the TTBK2 1074-1087-CEP164 1-109 fusion protein) mixed equimolar; vapour diffusion at 19°C
Conditions: both partners purified

binding result: binds
B1: camelid nanobody 36Z (VHH)
VHH: QVQLQESGGGLVQAGGSLNLSCVASGSSHFNSMGWYRQAPGKQRDLVADISNDGVTNYADSVKDRFTISTNNAKNAVYLQMNNLKPEDTAVYYCNAVAVAGRAFSYWGQGTQVTVSS
